In patent publication US11198713B2, “Agents modulating beta-catenin functions and methods thereof” (FOG PHARMACEUTICALS, INC., priority 2017, dated 2021):
Blank lines part the entries; values can stand above or below the molecule they belong to. Numbered stars: 1 amine (or outer) side, 2 acyl side, 3 side chain; on linkers, the order of the positions; unused ones are H or OH. Bridge positions count the residues as written; N and C are the ends. Square brackets hold non-standard residues; d marks the D form. Primed or numbered codes have the meaning given here. Peptide text beside a SMILES is read from it. * marks the point of attachment. MB = Monomer B = PyrS, Alloc-pyrrolidine stapling residue (allyl carbamate on pyrrolidine N); MB(12) = Monomer B (PyrS), pyrrolidine stapling residue with N-allyl carbamate; MC(3) = Monomer C (PyrR), pyrrolidine stapling residue with N-allyl carbamate; MI = Monomer I = ReN, acyclic amine-bearing olefin stapling residue; MD = Monomer D = SgN, acyclic Alloc-amine olefin stapling residue; R6 = (R)-2-(5-hexenyl)alanine, C=CCCCC[C@@](C)(N[*:1])C(=O)[*:2]; S6 = (S)-2-(5-hexenyl)alanine, C=CCCCC[C@](C)(N[*:1])C(=O)[*:2]; MG = Monomer G = RdN, acyclic alkyl-N(Alloc) stapling residue; MC = Monomer C = PyrR, Alloc-pyrrolidine stapling residue; MA = Monomer A (Az), N-Alloc azetidine stapling residue; S7 = C[C@@](CCCCCC=[*:3])(N[*:1])C(=O)[*:2]; R8 = C=CCCCCCC[C@@](C)(N)C(=O)O; S8 = C=CCCCCCC[C@](C)(N)C(=O)O; R5 = C=CCCC[C@@](C)(N)C(=O)O; Nle = CCCC[C@H](N)C(=O)O; Hex = hexyl, CCCCCC*; Octyl = CCCCCCCC*; βAla = NCCC(=O)O

Tests used:
[1] = test system: TCF/LEF Luciferase reporter HEK293 cell lines; test: TCF/LEF reporter assay; assay type: cell-based; conditions: Table 2
Method: FIG. 2. […] FIG. 2 depicts exemplary data from TCF/LEF reporter assays. Y-axes illustrate luminescence, and X-axes illustrate concentrations of peptides. […] TCF/LEF Luciferase reporter HEK293 cell lines (BPS Bioscience) were treated with dilution series of FP0025c and FP00217c Isomer 2 for 18 hours. 300 ng/mL of Wnt3a (Peprotech) was added to the cells for the final 6 hours of incubation. Luciferase activity was measured using Bright-Glo Luciferase Assay (Promega) according to manufacturer's protocol.
In some embodiments, a provided assay is a TCF/LEF reporter assay. In some embodiments, in an exemplary such assay, TCF/LEF Luciferase reporter HEK293 cell lines (BPS Bioscience) were treated with dilution series of provided peptides for 18 hours. 300 ng/mL of Wnt3a (Peprotech) was added to the cells for the final 6 hours of incubation. Luciferase activity was measured using Bright-Glo Luciferase Assay (Promega) according to manufacturer's protocol. […] Applicant also notes that teachings of the present disclosure are not restricted to a particular mechanism of action of described agents.

full-length beta-catenin [2] = target: T1, full-length beta-catenin (UniProt P35222 2-781, limits assumed); test: competition FP; amino staple (cyclic)
T1 construct: mature; also called full-length ß-Catenin; β-catenin
T1 sequence (looked up): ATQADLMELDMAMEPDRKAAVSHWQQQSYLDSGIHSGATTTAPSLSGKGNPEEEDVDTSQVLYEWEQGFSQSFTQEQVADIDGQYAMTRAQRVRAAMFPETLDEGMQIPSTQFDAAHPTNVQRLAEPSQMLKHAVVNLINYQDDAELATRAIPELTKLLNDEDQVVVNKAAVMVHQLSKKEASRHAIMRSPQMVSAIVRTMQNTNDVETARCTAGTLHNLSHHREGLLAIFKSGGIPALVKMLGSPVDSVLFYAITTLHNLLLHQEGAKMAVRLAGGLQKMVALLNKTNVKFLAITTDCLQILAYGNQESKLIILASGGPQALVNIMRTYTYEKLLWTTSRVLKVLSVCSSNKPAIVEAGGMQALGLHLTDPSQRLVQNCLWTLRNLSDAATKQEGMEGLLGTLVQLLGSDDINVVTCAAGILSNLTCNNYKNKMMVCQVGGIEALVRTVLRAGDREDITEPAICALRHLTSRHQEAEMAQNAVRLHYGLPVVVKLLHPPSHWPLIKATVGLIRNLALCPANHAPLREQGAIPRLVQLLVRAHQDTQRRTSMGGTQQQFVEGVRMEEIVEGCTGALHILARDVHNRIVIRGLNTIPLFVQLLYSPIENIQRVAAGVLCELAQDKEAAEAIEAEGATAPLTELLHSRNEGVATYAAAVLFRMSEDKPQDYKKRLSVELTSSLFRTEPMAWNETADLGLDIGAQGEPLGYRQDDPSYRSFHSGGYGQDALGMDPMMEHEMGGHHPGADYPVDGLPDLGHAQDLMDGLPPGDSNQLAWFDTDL
Method: (§1) In some embodiments, a competition fluorescence polarization assay is used to assess binding of provided compounds to beta-catenin. In an exemplary procedure, solutions of provided compounds, e.g., provided stapled peptides, were prepared in a buffer (e.g., 50 mM Tris pH 8.0, 250 mM NaCl, 2% glycerol, 0.5 mM EDTA, 0.02% w/v sodium azide) using a 3-fold serial dilution from 5 µM. Probe solution (15 nM full-length ß-Catenin, 20 nM FITC labeled peptide in buffer) was prepared and incubated for a period of time, e.g., 5 minutes, and the a volume, e.g., 40 µL per well plated in suitable plate, e.g., a black polystyrene 384-well plate (Corning). Equal volume of the serial diluted peptide was added to the plate and incubated protected from light for 15 minutes prior to read. Reads were performed on a Spectramax M5 (Molecular Devices) in duplicate. Suitable probe was FITC-PEG1-PQ-S5-ILD-S5-HVRRVWR (SEQ ID NO: 1) (hydrocarbon staple formed by two S5 via olefin metathesis) and/or FITC-bA-PQ-S5-ILD-S5-HVRRVWR (SEQ ID NO: 3) (hydrocarbon staple formed by two S5 via olefin metathesis). […] Another peptide, FPO217c (Ac-AR_8ILDAHIM$B5$RVW (SEQ ID NO: 280), with N-terminal proline removed and valine replaced with isoleucine compared to FP0025c) was prepared.

full-length beta-catenin [3] = target: T1, full-length beta-catenin; test: competition FP, grade of FP EC50 (+: 500-5000 nM)
Summary of the method: (§2)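 Compound 3-fold serially diluted from 5 µM in Tris pH 8.0, 250 mM NaCl buffer, added to premixed 15 nM full-length β-catenin and 20 nM FITC-labelled stapled axin-site peptide probe. Incubated 15 min in the dark, polarization read in duplicate.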

full-length beta-catenin [4] = target: T1, full-length beta-catenin; test: competition FP; amino staple (acyclic)
Method: as §1

full-length beta-catenin [5] = target: T1, full-length beta-catenin; test: competition FP, grade of FP EC50 (++: 100-500 nM)
Summary of the method: as §2

[6] = target: T2, biotinylated beta-catenin (UniProt P35222 134-665, limits assumed, biotinylated (site not stated)); test: Table 3 'Binding Kd (nM)'; method not stated there (SPR in Example 2)
T2 construct: also called beta-catenin (SPR); armadillo domain of β-catenin
T2 sequence (looked up): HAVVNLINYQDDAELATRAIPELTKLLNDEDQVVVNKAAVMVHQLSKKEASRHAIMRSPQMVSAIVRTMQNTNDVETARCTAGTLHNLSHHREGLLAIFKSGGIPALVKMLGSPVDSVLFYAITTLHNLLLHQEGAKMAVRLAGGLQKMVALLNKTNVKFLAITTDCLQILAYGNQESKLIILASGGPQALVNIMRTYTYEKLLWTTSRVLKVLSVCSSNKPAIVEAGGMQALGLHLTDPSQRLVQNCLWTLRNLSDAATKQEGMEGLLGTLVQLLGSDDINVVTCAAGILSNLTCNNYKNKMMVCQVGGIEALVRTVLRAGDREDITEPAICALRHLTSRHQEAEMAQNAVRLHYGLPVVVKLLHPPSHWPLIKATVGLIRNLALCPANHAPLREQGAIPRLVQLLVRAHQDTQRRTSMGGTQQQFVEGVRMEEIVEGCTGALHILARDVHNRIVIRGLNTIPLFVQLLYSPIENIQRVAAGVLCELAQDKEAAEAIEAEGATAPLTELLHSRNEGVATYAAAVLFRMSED
Method: (§3) Additionally or alternatively, binding to beta-catenin may be measured by Surface Plasmon Resonance. In an exemplary assay, approximately 6 nmol dried peptide diluted in buffer (50 mM Tris pH 8.0, 300 mM NaCl, 2% glycerol, 0.5 mM TCEP, 0.5 mM EDTA, 0.005% Tween-20, 1 mg/mL CM Dextran, 0.02% w/v sodium azide) was assayed on a Biacore X100 using the Biacore Biotin CAPture Kit (GE Healthcare) and biotinylated beta-catenin. Results were analyzed using the Biacore X100 Evaluation Software.

[7] = target: T2, biotinylated beta-catenin; test: SPR (Biacore, biotinylated beta-catenin)
Method: as §3

full-length beta-catenin [8] = target: T1, full-length beta-catenin; test: competition FP, grade of FP EC50 (+++: <=100 nM)
Method: as §1

full-length beta-catenin [9] = target: T1, full-length beta-catenin; test: Axin competition fluorescence polarization; 15 nM full-length beta-catenin, 20 nM FITC-StAx-33 probe displaced by titrated peptide

Molecule: 0ct-P-A-R8-I-L-D-A-H-V-MB-R-V-W-1NH2 (Octyl-PA[R8]ILDAHV[MB(12)]RVW-NH2; staple 3-10) [FP0324c]
TCF/LEF Reporter Inhibition at 10 μM [1]: 51%

Molecule: CC[C@H](C)[C@H](NC(=O)[C@H](CO)NC(=O)[C@H](C)NC(=O)[C@@H]1CCCN1C(C)=O)C(=O)N[C@@H](CC(C)C)C(=O)N[C@@H](CC(=O)O)C(=O)N[C@@H](C)C(=O)N[C@@H](Cc1c[nH]cn1)C(=O)N[C@H](C(=O)N[C@@H](CCC(N)=O)C(=O)N[C@@H](CCCNC(=N)N)C(=O)N[C@H](C(=O)N[C@@H](Cc1c[nH]c2ccccc12)C(N)=O)C(C)C)C(C)C [FP0098, Ac-P-A-S-I-L-D-A-H-V-Q-R-V-W-NH2] (Ac-PASILDAHVQRVW-NH2)
TCF/LEF Reporter Inhibition at 10 μM [1]: 18%

Molecule: CCCC[C@H](NC(=O)[C@@H](NC(=O)[C@H](CCCNC(=N)N)NC(=O)[C@H](CCC(N)=O)NC(=O)[C@@H](NC(=O)[C@H](Cc1c[nH]cn1)NC(=O)[C@H](CCC(=O)O)NC(=O)[C@H](CC(=O)O)NC(=O)[C@H](CC(C)C)NC(=O)[C@@H](NC(=O)[C@H](CO)NC(=O)[C@H](CCC(=O)O)NC(=O)[C@@H]1CCCN1C(C)=O)[C@@H](C)CC)C(C)C)C(C)C)C(=O)N[C@@H](CCCCN)C(N)=O [FP0110, Ac-P-E-S-I-L-D-E-H-V-Q-R-V-nL-K-NH2] (Ac-PESILDEHVQRV[Nle]K-NH2)
TCF/LEF Reporter Inhibition at 10 μM [1]: 19%

Molecule: Ac-P-A-MC-I-L-D-A-H-V-S8-R-V-W-NH2 (Ac-PA[MC(3)]ILDAHV[S8]RVW-NH2; staple 3-10) [FP0099]
TCF/LEF Reporter Inhibition at 10 μM [1]: 38%

Molecule: Hex-P-A-R8-I-L-D-A-H-V-MB-R-V-W-NH2 (Hex-PA[R8]ILDAHV[MB(12)]RVW-NH2; staple 3-10) [FP0325c]
TCF/LEF Reporter Inhibition at 10 μM [1]: 73%

EC50 (full-length beta-catenin [2]): 700 nM
FP EC50 (full-length beta-catenin [3]): 500 to 5000 nM
B1: FP0767a (peptide)
peptide: Ac-PQ[R6]ILD[MC]HVRRVWR-NH2
modifications: staple 3-7; also: amino staple (-N(R')-), from carbamate staple by metathesis then Pd(0) CO2 extrusion
notes: also called FP-0767 (amino staple)

EC50 (full-length beta-catenin [4]): 4750 nM
FP EC50 (full-length beta-catenin [3]): 500 to 5000 nM
B2: FP0777a (peptide)
peptide: Ac-PQ[R5]ILD[MI]HVRRVWR-NH2
modifications: staple 3-7; also: amino staple (-N(R')-), from carbamate staple by metathesis then Pd(0) CO2 extrusion
notes: also called FP-0777 (amino staple)

FP EC50 (full-length beta-catenin [5]): 100 to 500 nM
Kd [6]: 10 nM
B3: FP0338c (peptide)
peptide: Ac-A[R8]ILDAHI[MD]RVW-NH2
modifications: staple 2-9

Kd [7]: 3 nM
Kd [6]: 3 nM
FP EC50 (full-length beta-catenin [8]): ≤ 100 nM
B4: FP0509c (peptide)
peptide: AXILDAHIXRVW
modifications: not fully specified; Ac-A-R4-I-L-D-A-H-I-MH-R-V-W-NH2; carbamate staple R4/MH

EC50 (full-length beta-catenin [4]): 580 nM
FP EC50 (full-length beta-catenin [3]): 500 to 5000 nM
B5: FP0776a (peptide)
peptide: Ac-PQ[R5]ILD[MG]HVRRVWR-NH2
modifications: staple 3-7; also: amino staple (-N(R')-), from carbamate staple by metathesis then Pd(0) CO2 extrusion
notes: also called FP-0776 (amino staple)

Kd [7]: 4 nM
EC50 (read off the curve) (full-length beta-catenin [9]): ~60 nM
Kd [6]: 4 nM
FP EC50 (full-length beta-catenin [8]): ≤ 100 nM
B6: FP0597c (peptide)
peptide: AXILDAHIXRVW
modifications: not fully specified; Ac-A-MG-I-L-D-A-H-I-MB-R-V-W-NH2; carbamate staple MG/MB

EC50 (full-length beta-catenin [2]): 210 nM
FP EC50 (full-length beta-catenin [5]): 100 to 500 nM
B7: FP0745a (peptide)
peptide: Ac-PQ[MC]ILD[R6]HVRRVWR-NH2
modifications: staple 3-7; also: amino staple: CO2 extruded from carbamate staple with Pd(PPh3)4
notes: also called FP-0745 (amino staple); PR/R6

EC50 (full-length beta-catenin [2]): 200 nM
FP EC50 (full-length beta-catenin [5]): 100 to 500 nM
B8: FP0738a (peptide)
peptide: Ac-PQ[S7]ILD[MA]HVRRVWR-NH2
modifications: staple 3-7; also: amino staple: CO2 extruded from carbamate staple with Pd(PPh3)4
notes: also called FP-0738 (amino staple); S7/Az

EC50 (full-length beta-catenin [4]): 1400 nM
FP EC50 (full-length beta-catenin [3]): 500 to 5000 nM
B9: FP0783a (peptide)
peptide: Ac-PQ[MI]ILD[R5]HVRRVWR-NH2
modifications: staple 3-7; also: amino staple (-N(R')-), from carbamate staple by metathesis then Pd(0) CO2 extrusion
notes: also called FP-0783 (amino staple)

Kd [7]: 9 nM
FP EC50 (full-length beta-catenin [8]): ≤ 100 nM
B10: FP0217c_bAfree (peptide)
peptide: H-[βAla]A[R8]ILDAHI[MB]RVW-NH2
modifications: staple 3-10

EC50 (full-length beta-catenin [2]): 470 nM
FP EC50 (full-length beta-catenin [5]): 100 to 500 nM
B11: FP0736a (peptide)
peptide: Ac-PQ[S6]ILD[MA]HVRRVWR-NH2
modifications: staple 3-7; also: amino staple: CO2 extruded from carbamate staple with Pd(PPh3)4
notes: also called FP-0736 (amino staple)
